How the values were obtained:
[1] = molecular target: T1, WNT3/3A peptide DSLAIFGPVLDKATRESAC; assay: peptide ELISA
T1 peptide: DSLAIFGPVLDKATRESAC

[2] = molecular target: T2, WNT7A peptide GKELKVGSREAAC; assay: peptide ELISA
T2 peptide: GKELKVGSREAAC

[3] = molecular target: T3, WNT7B peptide GQELRVGSREAAC; assay: peptide ELISA
T3 peptide: GQELRVGSREAAC

[4] = molecular target: T4, WNT9A peptide RASLLKRGFKETAC; assay: peptide ELISA
T4 peptide: RASLLKRGFKETAC

[5] = molecular target: T5, WNT10A peptide YESPIFSRGFRESAC; assay: peptide ELISA
T5 peptide: YESPIFSRGFRESAC

[6] = molecular target: T6, Wnt-11 peptide LLDLERGTRESA (human); assay: peptide dot blot
T6 construct: also called Wnt-11 amino acids L101-A112
T6 peptide: LLDLERGTRESA

[7] = molecular target: T7, Wnt-11 alanine replacement peptide P01 ALDLERGTRESA (human); assay: peptide ELISA, alanine replacement panel
T7 peptide: ALDLERGTRESA

[8] = molecular target: T8, Wnt-11 alanine replacement peptide P02 LADLERGTRESA (human); assay: peptide ELISA, alanine replacement panel
T8 peptide: LADLERGTRESA

[9] = molecular target: T9, Wnt-11 alanine replacement peptide P03 LLALERGTRESA (human); assay: peptide ELISA, alanine replacement panel
T9 peptide: LLALERGTRESA

[10] = molecular target: T10, Wnt-11 alanine replacement peptide P04 LLDAERGTRESA (human); assay: peptide ELISA, alanine replacement panel
T10 peptide: LLDAERGTRESA

[11] = molecular target: T11, Wnt-11 alanine replacement peptide P05 LLDLARGTRESA (human); assay: peptide ELISA, alanine replacement panel
T11 peptide: LLDLARGTRESA

[12] = molecular target: T12, Wnt-11 alanine replacement peptide P06 LLDLEAGTRESA (human); assay: peptide ELISA, alanine replacement panel
T12 peptide: LLDLEAGTRESA

[13] = molecular target: T13, Wnt-11 alanine replacement peptide P07 LLDLERATRESA (human); assay: peptide ELISA, alanine replacement panel
T13 peptide: LLDLERATRESA

[14] = molecular target: T14, Wnt-11 alanine replacement peptide P08 LLDLERGARESA (human); assay: peptide ELISA, alanine replacement panel
T14 peptide: LLDLERGARESA

[15] = molecular target: T15, Wnt-11 alanine replacement peptide P09 LLDLERGTAESA (human); assay: peptide ELISA, alanine replacement panel
T15 peptide: LLDLERGTAESA

[16] = molecular target: T16, Wnt-11 alanine replacement peptide P10 LLDLERGTRASA (human); assay: peptide ELISA, alanine replacement panel
T16 peptide: LLDLERGTRASA

[17] = molecular target: T17, Wnt-11 alanine replacement peptide P11 LLDLERGTREAA (human); assay: peptide ELISA, alanine replacement panel
T17 peptide: LLDLERGTREAA

[18] = molecular target: T18, Wnt-11 peptide LLDLERGTRESAC (human); assay: peptide dot blot and peptide ELISA (Fig. 6a, b)
T18 construct: The C-terminal cysteine is not part of Wnt-11; also called wt101
T18 peptide: LLDLERGTRESAC

[19] = molecular target: T19, human Wnt-11 (wild-type, untagged) (human, UniProt O96014 25-354); assay: immunofluorescence of non-permeabilized VCaP (Wnt-11 high) and C4-2B (Wnt-11 low) cells
T19 construct: whole, on cells; also called wild-type Wnt-11
T19 sequence (looked up): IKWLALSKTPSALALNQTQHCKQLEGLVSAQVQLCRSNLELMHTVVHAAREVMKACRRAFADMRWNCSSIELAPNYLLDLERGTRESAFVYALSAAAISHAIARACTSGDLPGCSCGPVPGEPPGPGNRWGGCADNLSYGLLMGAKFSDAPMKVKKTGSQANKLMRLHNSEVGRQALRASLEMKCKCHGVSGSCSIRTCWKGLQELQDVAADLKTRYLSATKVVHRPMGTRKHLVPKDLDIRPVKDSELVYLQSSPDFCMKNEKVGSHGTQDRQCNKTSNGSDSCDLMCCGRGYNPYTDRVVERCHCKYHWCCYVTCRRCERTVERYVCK

[20] = molecular target: T20, Wnt-11 antibody epitope deletion mutant Wnt-11m (Wnt-11 delta 101-108, untagged) (human, UniProt O96014 25-354); assay: Ab1 staining and FACS sorting of transfected HEK 293 cells, western blot of Ab1high and Ab1low populations
T20 construct: whole, on cells; also called AE
T20 sequence (looked up): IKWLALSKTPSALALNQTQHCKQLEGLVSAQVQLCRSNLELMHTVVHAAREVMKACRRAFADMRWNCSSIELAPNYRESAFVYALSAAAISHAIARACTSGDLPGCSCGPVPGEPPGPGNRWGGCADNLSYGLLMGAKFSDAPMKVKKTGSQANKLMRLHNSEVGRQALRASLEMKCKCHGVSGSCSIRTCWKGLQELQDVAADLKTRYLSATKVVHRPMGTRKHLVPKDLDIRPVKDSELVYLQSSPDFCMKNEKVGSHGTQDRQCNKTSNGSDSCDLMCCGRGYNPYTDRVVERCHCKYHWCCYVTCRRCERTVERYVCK

[21] = molecular target: T6, Wnt-11 peptide LLDLERGTRESA; assay: peptide ELISA
[22] = molecular target: VSV-G-tagged full-length LRP6 (UniProt O75581); assay: immunofluorescence colocalization in transfected cells
[23] = molecular target: T18, Wnt-11 peptide LLDLERGTRESAC; assay: peptide dot blot (Fig. 6a)

Sequence of VSV-G-tagged full-length LRP6 (O75581 other isoform, or with tags, fused parts or gaps limits assumed): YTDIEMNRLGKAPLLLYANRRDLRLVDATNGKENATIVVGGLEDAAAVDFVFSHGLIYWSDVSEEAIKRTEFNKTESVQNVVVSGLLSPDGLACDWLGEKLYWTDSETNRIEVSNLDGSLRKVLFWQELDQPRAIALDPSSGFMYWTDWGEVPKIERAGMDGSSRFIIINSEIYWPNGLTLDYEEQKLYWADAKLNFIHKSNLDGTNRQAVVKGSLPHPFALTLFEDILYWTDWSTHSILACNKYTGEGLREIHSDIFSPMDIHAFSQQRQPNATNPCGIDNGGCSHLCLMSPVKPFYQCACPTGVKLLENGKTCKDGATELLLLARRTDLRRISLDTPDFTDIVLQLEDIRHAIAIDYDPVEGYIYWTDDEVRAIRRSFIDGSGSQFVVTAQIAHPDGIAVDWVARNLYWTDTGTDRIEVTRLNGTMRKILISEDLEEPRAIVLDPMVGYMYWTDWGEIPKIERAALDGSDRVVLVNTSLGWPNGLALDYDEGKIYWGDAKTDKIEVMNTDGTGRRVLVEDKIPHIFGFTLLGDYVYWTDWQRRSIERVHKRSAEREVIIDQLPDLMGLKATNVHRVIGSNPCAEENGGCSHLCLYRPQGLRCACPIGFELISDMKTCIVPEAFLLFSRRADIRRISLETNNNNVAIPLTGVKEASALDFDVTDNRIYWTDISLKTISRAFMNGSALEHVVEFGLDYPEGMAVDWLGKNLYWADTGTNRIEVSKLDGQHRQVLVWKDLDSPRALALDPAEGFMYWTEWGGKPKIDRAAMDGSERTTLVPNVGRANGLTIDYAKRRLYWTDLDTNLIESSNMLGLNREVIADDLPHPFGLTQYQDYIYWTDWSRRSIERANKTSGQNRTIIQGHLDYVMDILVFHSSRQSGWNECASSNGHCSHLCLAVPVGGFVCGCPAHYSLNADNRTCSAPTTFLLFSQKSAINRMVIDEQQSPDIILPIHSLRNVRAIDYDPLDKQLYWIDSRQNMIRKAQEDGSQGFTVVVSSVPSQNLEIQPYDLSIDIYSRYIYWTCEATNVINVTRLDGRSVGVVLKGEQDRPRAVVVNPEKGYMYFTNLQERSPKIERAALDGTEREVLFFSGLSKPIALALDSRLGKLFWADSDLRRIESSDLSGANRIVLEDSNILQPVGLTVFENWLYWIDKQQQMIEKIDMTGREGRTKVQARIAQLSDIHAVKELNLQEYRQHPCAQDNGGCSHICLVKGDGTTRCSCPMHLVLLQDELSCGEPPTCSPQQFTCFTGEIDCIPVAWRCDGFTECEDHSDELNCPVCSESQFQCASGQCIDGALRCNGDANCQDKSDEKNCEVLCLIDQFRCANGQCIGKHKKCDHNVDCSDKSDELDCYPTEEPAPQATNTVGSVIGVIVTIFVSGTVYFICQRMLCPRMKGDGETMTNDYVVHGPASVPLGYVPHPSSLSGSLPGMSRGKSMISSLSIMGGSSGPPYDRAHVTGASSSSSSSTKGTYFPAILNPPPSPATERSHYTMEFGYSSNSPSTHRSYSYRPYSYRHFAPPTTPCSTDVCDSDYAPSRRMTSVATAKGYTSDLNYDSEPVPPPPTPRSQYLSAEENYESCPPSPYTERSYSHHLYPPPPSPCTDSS

B1: anti-Wnt-11 rat monoclonal antibody Ab1 (E8) (antibody, rat IgG2a, V domains shown)
VH: EVELVESGGGLVQPGRSLKLSCAASGFTFSDYGMAWVRQTPTKGLEWVASITSGGGNPYYRDSVKGRFTISRDNAKNTQHLQMDSLRSEDTATYYCARHEYYGNYMTCFDYWGQGVMVTVSS
VL: AIVLNQSPSSIVASQGEKVTITCRASLSISSNYLHWYQQKPGAFPKLVIYSTSYRASGVPSRFSGSGSGTSYSFTISRVEAEDVATYYCQQGSSDPLTFGSGTKLEIK
notes: also called anti-Wnt-11-Ab1; Wnt-11 antibody E8
no binding (tested: Ab1 at 30 µg/ml): binding result [20]
no binding: binding result [1] | binding result [2] | binding result [3] | binding result [4] | binding result [5] | binding result [7] | binding result [8] | binding result [9] | binding result [10] | binding result [11] | binding result [12]
binds: binding result [6] | binding result [13] | binding result [14] | binding result [15] | binding result [16] | binding result [17] | binding result [18] | binding result [19]

B2: chimeric anti-Wnt-11 antibody E8h4hk (E8 IgG4k chimeric antibody) (antibody, V domains shown)
VH: EVELVESGGGLVQPGRSLKLSCAASGFTFSDYGMAWVRQTPTKGLEWVASITSGGGNPYYRDSVKGRFTISRDNAKNTQHLQMDSLRSEDTATYYCARHEYYGNYMTCFDYWGQGVMVTVSS
VL: AIVLNQSPSSIVASQGEKVTITCRASLSISSNYLHWYQQKPGAFPKLVIYSTSYRASGVPSRFSGSGSGTSYSFTISRVEAEDVATYYCQQGSSDPLTFGSGTKLEIK
notes: also called chimeric E8 (hIgG4kappa)
binds: binding result [21]

B3: human Wnt-11 (wild-type, untagged) (ligand, UniProt O96014 25-354, looked up)
chain: IKWLALSKTPSALALNQTQHCKQLEGLVSAQVQLCRSNLELMHTVVHAAREVMKACRRAFADMRWNCSSIELAPNYLLDLERGTRESAFVYALSAAAISHAIARACTSGDLPGCSCGPVPGEPPGPGNRWGGCADNLSYGLLMGAKFSDAPMKVKKTGSQANKLMRLHNSEVGRQALRASLEMKCKCHGVSGSCSIRTCWKGLQELQDVAADLKTRYLSATKVVHRPMGTRKHLVPKDLDIRPVKDSELVYLQSSPDFCMKNEKVGSHGTQDRQCNKTSNGSDSCDLMCCGRGYNPYTDRVVERCHCKYHWCCYVTCRRCERTVERYVCK
0.67: colocalization with LRP6, Spearman [22]
0.6: colocalization with LRP6, Pearson [22]

B4: Wnt-11 antibody epitope deletion mutant Wnt-11m (Wnt-11 delta 101-108, untagged) (ligand, human, UniProt O96014 25-354, looked up)
chain: IKWLALSKTPSALALNQTQHCKQLEGLVSAQVQLCRSNLELMHTVVHAAREVMKACRRAFADMRWNCSSIELAPNYRESAFVYALSAAAISHAIARACTSGDLPGCSCGPVPGEPPGPGNRWGGCADNLSYGLLMGAKFSDAPMKVKKTGSQANKLMRLHNSEVGRQALRASLEMKCKCHGVSGSCSIRTCWKGLQELQDVAADLKTRYLSATKVVHRPMGTRKHLVPKDLDIRPVKDSELVYLQSSPDFCMKNEKVGSHGTQDRQCNKTSNGSDSCDLMCCGRGYNPYTDRVVERCHCKYHWCCYVTCRRCERTVERYVCK
0.46: colocalization with LRP6, Spearman [22]
0.4: colocalization with LRP6, Pearson [22]

B5: anti-Wnt-11 rat monoclonal antibody Ab2 (F10) (antibody, rat IgG2c, V domains shown)
VH: EVQLVESGGGLVQPGRSLKLSCAASGFTFSNYGMAWVRQAPTKGLEWVASINYDGRNTYYRDSVKGRFTISRDNAKSTVYLQMDSLRSEDTATYYCARPQDGVIDAWGQGDSVTVSS
VL: DVVMTQTPVSLPVSLGGQASISCRSSQSLVHSNGNTYLHWYLQKPGQFPQLLIYRVSNRFSGVPDRFSGSGSGTDFTLKISRVESEDLGVYYCLQGTHLPPTFGGGTKLELK
notes: also called anti-Wnt-11-F10; Wnt-11 antibody F10
binds: binding result [6] | binding result [23]

Source: patent publication EP4497755A1 (Asociación Centro de Investigación Cooperativa en …, dated 2025)
